Results from the RNAGym collection of RNA variant scans (doi:10.1073/pnas.2313332121).
This sample holds only a part of the variants without activity.

B1: TPR 5TU (parent)
chain: GGAUCUUCUCGAUCUAACAAAAAAGACAAAUCUGCCACAAAGCUUGAGAGCAUCUUCGGAUGCAGAGGCGGCAGCCUUCGGUGGCGCGAUAGCGCCAACGUUCUCAACUAUGACACGCAAAACGCGUGCUCCGUUGAAUGGAGUUUAUCAUG

Variants of: B1
Assay: polymerase ribozyme fitness, log enrichment relative to wild type (log ratio); higher = more active; in vitro selection for triplet polymerase activity
In short: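 After PCR construction and transcription, each subunit's mutant library from a heterodimeric triplet polymerase ribozyme was annealed with a biotinylated primer, the partner subunit and triplets. Incubation was frozen, at −7 °C, and extended constructs were gel-excised, bound to streptavidin beads and amplified by RT-PCR, in one selection round done in triplicate. Fitness is the logarithm of a genotype's enrichment divided by that of the wild type, from inverse-variance-weighted replicate averages of Illumina-sequenced inputs and outputs. The base of the logarithm is 2, and genotypes needed ≥10 input reads and ≥1 read per output.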

Variant	polymerase ribozyme fitness (log ratio)
A30U C43G A47G U53G C72A G140A	≤ -4.2
A29G C131U	≤ -4.2
A30G C32G U56A C57G G86U A142G	≤ -4.2
A30C C54U C96G G141A	≤ -4.2
A30G A47C G48A	≤ -4.2
A30G A39C U55G U82C G136U	≤ -4.2
A30C C95U	-4.11
A29U C32A A41U G71C C85U C87U A98C	≤ -4.2
A30U A40G G50C G67A C76A C85U A89C C132U	≤ -4.2
U31A A41U G83C U111G G136C	≤ -4.2
A30U U144A	-3.67
A30C U33C G67A C93G A119U	-3.89
A29U A41U C75U C123U G143U U145G	≤ -4.2
U31A C54G C57A C85G C123U	-3.47
A30U A73G	-3.78
A29U U61A A91C C96A G128C	≤ -4.2
A29U A60G C76A	≤ -4.2
A29U C99A	-4.17
A29U U45A G70A C85G	≤ -4.2
A30U A52U C93A	≤ -4.2
A29G U55G C57G C87A A107G	≤ -4.2
A30G G48A G80U G88U U109C	≤ -4.2
U31A C76U C116U U127G	≤ -4.2
A30G C54U G80U A91C C103U	≤ -4.2

Variant	polymerase ribozyme fitness (log ratio)
A30U C32U G48A C51U U56G C76U	≤ -4.2
A30U C32G C54A C57G C99U A107G	≤ -4.2
U31A C76U C93G	-2.71
A29U	-3.4
U31A C69G A89U C96G U104A	-3.89
A30C C75G C103G	≤ -4.2
A30G G141C	-3.51
A30G U45G G46C C76U C87U U135A	≤ -4.2
A30C G48C A60G	≤ -4.2
A30U G86A	-3.95
A29U C32U G62A G67U C75G U82G A142U A150G	-3.64
A30U G83U G141U	-3.89
A30C C57G C63U G65U C96U A97U	≤ -4.2
A29U A66U C96U	≤ -4.2
A30G A47U G50C G80C C96U C103U	≤ -4.2
A30G A150U	-2.97
A30U A52G U56G G80C G84U A98C A110U	≤ -4.2
A30G A60G C93A C105G C132A A142U	≤ -4.2
A29G G42A G81A C85U	-4.09
A30C G65A G67C G100A A119U	≤ -4.2
A30U G42A C85U A89G C99A A107C A122U C125A U144C C149A	≤ -4.2
A30U C87G C116A G141A	≤ -4.2
A29G G50A G80U A91C U134A U146C	≤ -4.2
U31A A52C A91U	-4.06

Variant	polymerase ribozyme fitness (log ratio)
A29U G70U	≤ -4.2
A30G A91G	≤ -4.2
A30G A40G U45G C79G A89C G94U U145A	≤ -4.2
A30C U44G C108G U145G	≤ -4.2
U31A A49G C105U	-0.707
A30C G48C G67A A91U G100U	≤ -4.2
A29U A142G C149U	≤ -4.2
A30U C35U G141U	≤ -4.2
A30G C54G A121U U139A U145C	≤ -4.2
A29G U31A C43G	≤ -4.2
A30G A47U A64G G94A	-3.57
A30G G42A U55G G65A C76G C87G A106U G143A A147C	≤ -4.2
A30G C76U C96U	≤ -4.2
A30G G58U C118U	-3.95
A30U U61A G70C C96A U111G G140A	≤ -4.2
A30G C54G G68A C95G A121C	≤ -4.2
A29U A49G C54G G59U A91U C96A G117U A142U	≤ -4.2
A29U G50U C116U A147U	-4.04
A29G U111A	≤ -4.2
A29U A39U U55A C79A C93G	≤ -4.2
A30U G83U G88A U109C C125U G133C	≤ -4.2
A29U G34C G48C G80A U82A C105A A115G U151A	≤ -4.2
A30C C54U C69A G70A A137C	≤ -4.2
A30U G50C U56A A66C G141A	≤ -4.2

Variant	polymerase ribozyme fitness (log ratio)
A29U G81U G92C C116G G140A U148C	≤ -4.2
A29U U53G G81A G88C	≤ -4.2
A29U G68A	≤ -4.2
A30U C69U G83A	≤ -4.2
A30G G42U A113U C114U C125U	≤ -4.2
A30U A66G A115U G143A	≤ -4.2
U31A C51G	-0.943
A29U U44A A49C C57U G88U	≤ -4.2
A30U A122U	-2.62
A30U C87G U101G U146A C149G	≤ -4.2
A30G C95A U104A C118U C131A A138U G141A	≤ -4.2
A30G C57A	-2.9
U31A C85G C96G A142C	≤ -4.2
A30G C43G G83A	≤ -4.2
A29U U44A G58C U61A G71U U77A U82G G140C	≤ -4.2
A30G C87G U101C A122G	≤ -4.2
A30U C35U G68U A120U	≤ -4.2
A30G U45A A106C U135G	-3.85
U31A A73C	-4.13
A29U G58C G84A C105U A113C	≤ -4.2
A29G G48A C75U	≤ -4.2
U31A C131A	-1.89
A30U A49C A60U U77C U148A	≤ -4.2
A30U C32G U55G G74A A89G C93A G133U A142C	≤ -4.2

Variant	polymerase ribozyme fitness (log ratio)
A29U U109G C149G	≤ -4.2
A29U C63U C114U	≤ -4.2
A30G U53A G62U A64G	≤ -4.2
U31A C35G A66C G68U	-4.17
A30C C72G G86U A106G U144C C149G	≤ -4.2
A29U U111C C114G G140U	≤ -4.2
A30G U44C G88C C105A	≤ -4.2
A30U A66U C85U A106C	≤ -4.2
U31A A52G G84U	-0.528
A29U U31G C36U C69G G84A	≤ -4.2
A30C G68A C87U A106U A120G	≤ -4.2
U31A C38A G50C C85U	≤ -4.2
A30G C87U A110U C131A G136U G141U	≤ -4.2
U31A A66U G86U G100C	≤ -4.2
A30C C93U A106U C131A A142C	-4.12
U31A C96U A115C U146C	-0.845
A30U C76A	-3.82
A29U U134A	≤ -4.2
A29U G48A C87G A121G G141C G152U	≤ -4.2
A30G G48U C76G C96U A97C U134G	≤ -4.2
A29U C51A G94A	≤ -4.2
A30G C35U U56G A66G U82G C99U A119U G126A A142C	≤ -4.2
U31A C85U C114U	-1.15
A30C C96A U135A A137U	≤ -4.2

Variant	polymerase ribozyme fitness (log ratio)
A30G A41U U135A A137U	≤ -4.2
A30C G59A	≤ -4.2
A30G C75A G94U A137C G143U A150U	≤ -4.2
A29U A41U C69U C95A C118G C125U U148A	≤ -4.2
A29U A41C A52C C87U U102C G136A G143C U146A	≤ -4.2
A30U G71C C95A	≤ -4.2
A29G U55A C95U U101C U109A G133A	≤ -4.2
A29U C35G C95G	-4.03
A30G G50U C75A U78C G94C	≤ -4.2
A30C G50C A66G G128U	≤ -4.2
A30C A41C G67C G83U G88U G141A	≤ -4.2
A30U G58C C76A G94C U104G G136A	≤ -4.2
A30U A47C G50A C54G G92C C123G	≤ -4.2
A30G U56A C85G C132U	≤ -4.2
A30C U31C C32A G46C G50C G58U G88C U104C A122G	≤ -4.2
U31A C69A C95A C116G	-2
A29U A49C C63U C116U G133C U139A U146A	≤ -4.2
A30C G48C G50U A98G A107G C118U A120C G141U	≤ -4.2
A29G G34A A49U G59U C76U C108A A119G	≤ -4.2
A30G C54A C85G A120U C125U G136A	≤ -4.2
A30G G92U A98U	-3.79
A30U C85U A97U G128A G140C C149U	≤ -4.2
A30U G84A C96U U144A	≤ -4.2
A29U C35A A60G C85A G126A	≤ -4.2

Variant	polymerase ribozyme fitness (log ratio)
U31A A41G C76U C93A G136A G140A	-3.72
A30G G71A C85G G141C	≤ -4.2
A30U A39G A98G C99U C105G	≤ -4.2
A30U A37U U53A C87U	≤ -4.2
A30C G59C A60C C93A C99U C114A	≤ -4.2
A30C G81C A138G U146A C149U	≤ -4.2
A30U U56A G62A G126A	-3.5
A30G C54U C76G A91C	≤ -4.2
A29U U45G G86C U148A	≤ -4.2
A29U G59C U82A C93U	≤ -4.2
A29G G59U A60U C114U	≤ -4.2
A30U U61G G68A C93U C103G A147C	≤ -4.2
A30U G58C U90G C95A	≤ -4.2
A29G U31A C96U C114U G140C	≤ -4.2
A30U A106G	-2.9
U31A A39G A40U A41C G48A C95U C131G U148A	≤ -4.2
A30U C54A A97U C116U G117U	≤ -4.2
U31A C87G C114A	-4.03
A29U A41C U61A G67U G86U G92A C93A G133C	≤ -4.2
A30C U33A G68U A73U C95A C114A A121G	≤ -4.2
A30U U33C A138G	≤ -4.2
A29U A73G C93A G128U G140U	≤ -4.2
A29U A30U A37U A47G G50C A97U G100U A106C	≤ -4.2
